# Experimental data from paper PMC3515690 (Nature structural & molecular biology, 2012).
# Read-outs that look alike come from different tables or passages of the source.
# How the values were obtained:
# [1] = molecular target: T1, Atg7 with residues 290–294 deleted (S. cerevisiae, UniProt P38862 1-630, deletion of residues 290–294); assay: cross-linking
# T1 sequence (looked up): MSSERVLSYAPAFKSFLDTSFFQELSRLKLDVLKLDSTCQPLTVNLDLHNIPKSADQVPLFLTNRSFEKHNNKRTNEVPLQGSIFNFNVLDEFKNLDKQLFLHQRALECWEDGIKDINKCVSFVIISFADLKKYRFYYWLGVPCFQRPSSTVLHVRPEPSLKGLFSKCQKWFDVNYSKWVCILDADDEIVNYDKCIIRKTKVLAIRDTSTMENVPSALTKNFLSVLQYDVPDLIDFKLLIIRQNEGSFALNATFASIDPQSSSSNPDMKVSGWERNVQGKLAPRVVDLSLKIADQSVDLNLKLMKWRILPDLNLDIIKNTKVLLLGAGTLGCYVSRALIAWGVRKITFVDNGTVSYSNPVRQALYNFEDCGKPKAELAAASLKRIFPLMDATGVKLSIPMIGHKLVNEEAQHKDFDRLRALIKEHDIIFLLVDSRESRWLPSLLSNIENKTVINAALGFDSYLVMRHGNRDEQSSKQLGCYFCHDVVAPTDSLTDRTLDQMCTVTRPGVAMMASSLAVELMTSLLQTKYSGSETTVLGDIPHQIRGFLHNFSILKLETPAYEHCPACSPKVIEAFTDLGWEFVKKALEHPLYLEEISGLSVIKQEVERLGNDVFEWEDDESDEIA
# Atg7 P283D = molecular target: T2, Atg7 P283D (S. cerevisiae, UniProt P38862 1-630, P283D); assay: cross-linking
# T2 sequence (looked up): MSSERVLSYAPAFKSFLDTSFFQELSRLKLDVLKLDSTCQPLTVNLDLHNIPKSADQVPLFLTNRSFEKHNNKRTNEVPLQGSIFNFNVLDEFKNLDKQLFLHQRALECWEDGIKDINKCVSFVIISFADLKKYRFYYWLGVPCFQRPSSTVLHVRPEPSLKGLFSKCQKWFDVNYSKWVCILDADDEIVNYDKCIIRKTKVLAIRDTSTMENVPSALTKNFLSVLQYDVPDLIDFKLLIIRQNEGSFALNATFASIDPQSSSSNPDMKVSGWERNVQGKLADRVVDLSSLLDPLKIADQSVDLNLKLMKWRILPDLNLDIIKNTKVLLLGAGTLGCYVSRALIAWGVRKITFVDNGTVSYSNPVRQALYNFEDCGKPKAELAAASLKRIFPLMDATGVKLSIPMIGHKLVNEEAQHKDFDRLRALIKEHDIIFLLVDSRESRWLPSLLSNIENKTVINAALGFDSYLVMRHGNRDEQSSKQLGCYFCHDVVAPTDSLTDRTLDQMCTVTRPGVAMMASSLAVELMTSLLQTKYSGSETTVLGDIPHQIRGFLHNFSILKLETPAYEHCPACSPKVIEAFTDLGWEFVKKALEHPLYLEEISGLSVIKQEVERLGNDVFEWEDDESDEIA
# [2] = molecular target: T3, Atg7 with a Gly-Gly-Ser-Gly insertion after Leu291 (S. cerevisiae, UniProt P38862 1-630, Gly-Gly-Ser-Gly insertion after Atg7’s Leu291); assay: cross-linking
# T3 sequence (looked up): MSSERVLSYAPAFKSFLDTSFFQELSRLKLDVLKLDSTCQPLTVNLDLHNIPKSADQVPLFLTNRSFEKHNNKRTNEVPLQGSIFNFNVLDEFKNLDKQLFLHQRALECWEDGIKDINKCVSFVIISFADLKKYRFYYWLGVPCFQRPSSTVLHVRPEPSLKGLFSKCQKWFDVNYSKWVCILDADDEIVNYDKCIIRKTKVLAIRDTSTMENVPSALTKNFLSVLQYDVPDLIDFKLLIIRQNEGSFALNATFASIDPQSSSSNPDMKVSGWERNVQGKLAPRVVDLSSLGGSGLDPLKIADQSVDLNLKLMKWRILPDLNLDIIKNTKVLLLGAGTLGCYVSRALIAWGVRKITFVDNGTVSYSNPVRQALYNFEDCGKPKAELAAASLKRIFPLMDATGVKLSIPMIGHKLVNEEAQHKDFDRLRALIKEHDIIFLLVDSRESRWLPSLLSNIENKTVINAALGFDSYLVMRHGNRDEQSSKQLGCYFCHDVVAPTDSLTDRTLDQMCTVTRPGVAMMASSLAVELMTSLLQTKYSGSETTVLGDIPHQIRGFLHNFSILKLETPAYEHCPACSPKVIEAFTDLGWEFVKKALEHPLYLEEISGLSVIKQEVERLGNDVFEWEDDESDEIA
# crystal structure [3] = molecular target: the molecule itself; assay: crystal structure
# crystal structure [4] = molecular target: the molecule itself; assay: crystal structure; remark: listed apart in the source
binder,measurement,setting,value
"Atg10 (Cys133only, with C26A and C137A) (enzyme, S. cerevisiae, UniProt Q07879 1-167, looked up, Cys133 reacted with bismaleimidoethane (BMOE)) MIPYQEWHSQLQSLYDSQIFHNWALAQDVHLNDEKDGLLLRLIPTRQLQKNTERIENKLLNHIELYLTYSKVYNEPLLLLRIWEEKSIDGIPMTKLMLPTDIESLLDVQGKFQLGLDTIINLEGSVWYSFHPCDTSAIVGDQAEFMSTYLRRWVSIFIFSWLGYEDS",binding result,[1],binds
same,binding result,Atg7 P283D,binds
same,binding result,[2],binds
"Atg7 (residues 1–613) (enzyme, S. cerevisiae, UniProt P38862 1-613, looked up, catalytic Cys507 linked through bismaleimidoethane (BMOE) to Atg3 Cys234) MSSERVLSYAPAFKSFLDTSFFQELSRLKLDVLKLDSTCQPLTVNLDLHNIPKSADQVPLFLTNRSFEKHNNKRTNEVPLQGSIFNFNVLDEFKNLDKQLFLHQRALECWEDGIKDINKCVSFVIISFADLKKYRFYYWLGVPCFQRPSSTVLHVRPEPSLKGLFSKCQKWFDVNYSKWVCILDADDEIVNYDKCIIRKTKVLAIRDTSTMENVPSALTKNFLSVLQYDVPDLIDFKLLIIRQNEGSFALNATFASIDPQSSSSNPDMKVSGWERNVQGKLAPRVVDLSSLLDPLKIADQSVDLNLKLMKWRILPDLNLDIIKNTKVLLLGAGTLGCYVSRALIAWGVRKITFVDNGTVSYSNPVRQALYNFEDCGKPKAELAAASLKRIFPLMDATGVKLSIPMIGHKLVNEEAQHKDFDRLRALIKEHDIIFLLVDSRESRWLPSLLSNIENKTVINAALGFDSYLVMRHGNRDEQSSKQLGCYFCHDVVAPTDSLTDRTLDQMCTVTRPGVAMMASSLAVELMTSLLQTKYSGSETTVLGDIPHQIRGFLHNFSILKLETPAYEHCPACSPKVIEAFTDLGWEFVKKALEHPLYLEEISGLSVIKQEVER",stoichiometry N,crystal structure [3],2
"Atg7(1–613 C39S C195S C375A) (enzyme, S. cerevisiae, UniProt P38862 1-613, looked up, catalytic Cys507 linked through bismaleimidoethane (BMOE) to Atg10 Cys133) MSSERVLSYAPAFKSFLDTSFFQELSRLKLDVLKLDSTSQPLTVNLDLHNIPKSADQVPLFLTNRSFEKHNNKRTNEVPLQGSIFNFNVLDEFKNLDKQLFLHQRALECWEDGIKDINKCVSFVIISFADLKKYRFYYWLGVPCFQRPSSTVLHVRPEPSLKGLFSKCQKWFDVNYSKWVCILDADDEIVNYDKSIIRKTKVLAIRDTSTMENVPSALTKNFLSVLQYDVPDLIDFKLLIIRQNEGSFALNATFASIDPQSSSSNPDMKVSGWERNVQGKLAPRVVDLSSLLDPLKIADQSVDLNLKLMKWRILPDLNLDIIKNTKVLLLGAGTLGCYVSRALIAWGVRKITFVDNGTVSYSNPVRQALYNFEDAGKPKAELAAASLKRIFPLMDATGVKLSIPMIGHKLVNEEAQHKDFDRLRALIKEHDIIFLLVDSRESRWLPSLLSNIENKTVINAALGFDSYLVMRHGNRDEQSSKQLGCYFCHDVVAPTDSLTDRTLDQMCTVTRPGVAMMASSLAVELMTSLLQTKYSGSETTVLGDIPHQIRGFLHNFSILKLETPAYEHCPACSPKVIEAFTDLGWEFVKKALEHPLYLEEISGLSVIKQEVER",stoichiometry N,crystal structure [4],2
